Laboratory results published in IntAct's records for PubMed 23454120.

B1: Rho-related GTP-binding protein RhoD (Mus musculus), P97348 (parent)
chain: MNASQVAGEEAPQSGHSVKVVLVGDGGCGKTSLMMVFAKGAFPESYSPTVFERYNATLQMKGKPVHLQIWDTAGQDDYDRLRPLFYPDANVLLLCFDVTNPNSFDNVSNRWYPEVTHFCKGVPIIVVGCKIDLRKDKVLVNNLRKKRLEPVTYHRGHDMARSVGAVAYLECSARLHDNVEAVFQEAAEVALSSRRHNFWRRITQNCCLAT

Variants of: B1
Conditions: with dapk3_human DAPK3, O43293
dapk3_human DAPK3, O43293, sequence (O43293 whole entry, looked up): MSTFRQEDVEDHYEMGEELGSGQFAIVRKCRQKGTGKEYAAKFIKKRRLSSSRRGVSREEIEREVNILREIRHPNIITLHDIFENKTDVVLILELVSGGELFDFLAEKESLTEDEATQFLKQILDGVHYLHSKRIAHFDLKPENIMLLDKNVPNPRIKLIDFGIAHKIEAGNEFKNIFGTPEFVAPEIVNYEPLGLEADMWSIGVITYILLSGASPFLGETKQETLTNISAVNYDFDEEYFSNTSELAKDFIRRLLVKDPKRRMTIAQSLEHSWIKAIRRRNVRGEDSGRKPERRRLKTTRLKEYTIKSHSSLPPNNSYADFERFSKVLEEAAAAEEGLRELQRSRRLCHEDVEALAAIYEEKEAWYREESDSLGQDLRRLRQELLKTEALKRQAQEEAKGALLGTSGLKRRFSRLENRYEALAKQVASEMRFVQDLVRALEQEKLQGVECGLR

Variant	effect of a mutation on the interaction
MNASQVAGEEAPQSGHSVKVVLVGDGGCGKNSLMMVFAKGAFPESYSPTVFERYNATLQMKGKPVHLQIWDTAGQDDYDRLRPLFYPDANVLLLCFDVTNPNSFDNVSNRWYPEVTHFCKGVPIIVVGCKIDLRKDKVLVNNLRKKRLEPVTYHRGHDMARSVGAVAYLECSARLHDNVEAVFQEAAEVALSSRRHNFWRRITQNCCLAT [T31N]	disrupting interaction
